# Results: publication PMC4556779 (Redox Biology, 2015)
# B1: sulfinylated Myc-Tsa1 (CP-SO2H), from H2O2-exposed cells (enzyme, S. cerevisiae, UniProt P34760 1-196, looked up)
# chain: MVAQVQKQAPTFKKTAVVDGVFDEVSLDKYKGKYVVLAFIPLAFTFVCPTEIIAFSEAAKKFEEQGAQVLFASTDSEYSLLAWTNIPRKEGGLGPINIPLLADTNHSLSRDYGVLIEEEGVALRGLFIIDPKGVIRHITINDLPVGRNVDEALRLVEAFQWTDKNGTVLPCNWTPGAATIKPTVEDSKEYFEAANK
# modifications: sulfinic acid (CP-SO2H) at the peroxidatic Cys (CP, C48)
# Molecular target: the molecule itself
# Assay: SEC
protein,measurement,value
B1,stoichiometry N,~20
